Screen value and dG data for four variants are collected here from publication PMC11189300.

B1: KNL1 residues 2,026–2,342 [human] / Mis12 complex full length: MIS12, PMF1, NSL1, DSN1 [human] (parent)
chain 1: SAQNEREKLQIKIDEMDKILKKIDNCLTEMETETKNLEDEEKNNPVEEWDSEMRAAEKELEQLKTEEEELQRNLLELEVQKEQTLAQIDFMQKQRNRTEELLDQLSLSEWDVVEWSDDQAVFTFVYDTIQLTITFEESVVGFPFLDKRYRKIVDVNFQSLLDEDQAPPSSLLVHKLIFQYVEEKESWKKTCTTQHQLPKMLEEFSLVVHHCRLLGEEIEYLKRWGPNYNLMNIDINNNELRLLFSSSAAFAKFEITLFLSAYYPSVPLPSTIQNHVGNTSQDDIATILSKVPLENNYLKNVVKQIYQDLFQDCHFYH
chain 2: MSVDPMTYEAQFFGFTPQTCMLRIYIAFQDYLFEVMQAVEQVILKKLDGIPDCDISPVQIRKCTEKFLCFMKGHFDNLFSKMEQLFLQLILRIPSNILLPEDKCKETPYSEEDFQHLQKEIEQLQEKYKTELCTKQALLAELEEQKIVQAKLKQTLTFFDELHNVGRDHGTSDFRESLVSLVQNSRKLQNIRDNVEKESKRLKIS
chain 3: MAEASSANLGSGCEEKRHEGSSSESVPPGTTISRVKLLDTMVDTFLQKLVAAGSYQRFTDCYKCFYQLQPAMTQQIYDKFIAQLQTSIREEISDIKEEGNLEAVLNALDKIVEEGKVRKEPAWRPSGIPEKDLHSVMAPYFLQQRDTLRRHVQKQEAENQQLADAVLAGRRQVEELQLQVQAQQQAWQALHREQRELVAVLREPE
chain 4: MAGSPELVVLDPPWDKELAAGTESQALVSATPREDFRVRCTSKRAVTEMLQLCGRFVQKLGDALPEEIREPALRDAQWTFESAVQENISINGQAWQEASDNCFMDSDIKVLEDQFDEIIVDIATKRKQYPRKILECVIKTIKAKQEILKQYHPVVHPLDLKYDPDPAPHMENLKCRGETVAKEISEAMKSLPALIEQGEGFSQVLRMQPVIHLQRIHQEVFSSCHRKPDAKPENFITQIETTPTETASRKTSDMVLKRKQTKDCPQRKWYPLRPKKINLDT
chain 5: MTSVTRSEIIDEKGPVMSKTHDHQLESSLSPVEVFAKTSASLEMNQGVSEERIHLGSSPKKGGNCDLSHQERLQSKSLHLSPQEQSASYQDRRQSWRRASMKETNRRKSLHPIHQGITELSRSISVDLAESKRLGCLLLSSFQFSIQKLEPFLRDTKGFSLESFRAKASSLSEELKHFADGLETDGTLQKCFEDSNGKASDFSLEASVAEMKEYITKFSLERQTWDQLLLHYQQEAKEILSRGSTEAKITEVKVEPMTYLGSSQNEVLNTKPDYQKILQNQSKVFDCMELVMDELQGSVKQLQAFMDESTQCFQKVSVQLGKRSMQQLDPSPARKLLKLQLQNPPAIHGSGSGSCQ

The variants in the first assay derive from B1. In words: ITC. Particulars: with Mis12 complex (Mis12C), syringe KNL1^M1, cell Mis12C^WT.
Consider chain 1 M231A S247W F250A K252A, for which the screen value was found to be 1.2.

Still in this assay, the particulars now being: with Mis12 complex (Mis12C), syringe KNL1^M1, cell Mis12C^WT, parent: -12.
Take chain 1 M231A S247W F250A K252A: the dG was -9.35.

Still in this assay, the particulars now being: with Mis12 complex (Mis12C), syringe KNL1^M2, cell Mis12C^WT.
For chain 1 M231A S247W F250A K252E, the screen value is -16.1.

The assay is the same for the next values; noted with them: with Mis12 complex (Mis12C), syringe KNL1^M2, cell Mis12C^WT, parent: -12.
For the variant chain 1 M231A S247W F250A K252E, the dG was -9.5.

Still in this assay, the particulars now being: with KNL1 residues 2,026–2,342 [human]; syringe KNL1^WT; cell Mis12C^M2.
Regarding chain 3 R195E V198L, chain 5 L290F, the screen value is -14.3.

The assay is the same for the next values; noted with them: with KNL1 residues 2,026–2,342 [human]; syringe KNL1^WT; cell Mis12C^M2; parent: -12.
For the variant chain 3 R195E V198L, chain 5 L290F, the dG was -10.4.

The same assay, now with this note: with KNL1 residues 2,026–2,342 [human]; syringe KNL1^WT; cell Mis12C^M1.
For the variant chain 3 R195A V198L, chain 5 L290F, the screen value worked out at 5.83.
